In patent US20180369326A1 (LA JOLLA INSTITUTE FOR ALLERGY AND IMMUNOLOGY, published 2018):

Tests used:
[1] = target: p85α, the regulatory subunit of PI3K, endogenous, mouse primary CD4+ T cells (mouse, UniProt P26450 2-724); assay: co-IP (anti-ICOS IP, immunoblot), mouse CD4+ T cells unstimulated or stimulated with anti-CD3, anti-ICOS or both (FIG. 6a)
[2] = target: T1, TRAF3, endogenous, mouse primary CD4+ T cells (mouse, UniProt Q60803 1-567); assay: anti-ICOS IP and immunoblot, mouse primary CD4+ T cells restimulated with anti-CD3 plus anti-ICOS (FIG. 14)
T1 sequence (looked up): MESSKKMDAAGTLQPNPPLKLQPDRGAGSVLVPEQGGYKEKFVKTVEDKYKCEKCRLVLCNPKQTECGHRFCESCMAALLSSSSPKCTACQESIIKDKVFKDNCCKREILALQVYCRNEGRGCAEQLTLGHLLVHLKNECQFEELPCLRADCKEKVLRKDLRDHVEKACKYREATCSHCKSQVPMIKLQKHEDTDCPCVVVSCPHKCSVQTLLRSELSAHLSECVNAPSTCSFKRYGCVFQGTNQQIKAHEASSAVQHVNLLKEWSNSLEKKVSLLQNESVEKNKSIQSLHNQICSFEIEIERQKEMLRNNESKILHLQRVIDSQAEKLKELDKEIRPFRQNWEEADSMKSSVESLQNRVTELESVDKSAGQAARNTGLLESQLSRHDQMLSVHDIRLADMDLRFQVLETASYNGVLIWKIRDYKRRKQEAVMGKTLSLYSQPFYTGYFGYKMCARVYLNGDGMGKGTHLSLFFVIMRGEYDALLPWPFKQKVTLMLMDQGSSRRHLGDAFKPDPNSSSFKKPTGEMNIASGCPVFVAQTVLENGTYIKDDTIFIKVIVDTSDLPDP

[3] = target: TRAF5, endogenous, mouse primary CD4+ T cells (mouse, UniProt P70191 1-558); assay: as above
[4] = target: T2, TRAF2, endogenous, mouse primary CD4+ T cells (mouse, UniProt P39429 2-501); assay: as above
T2 sequence (looked up): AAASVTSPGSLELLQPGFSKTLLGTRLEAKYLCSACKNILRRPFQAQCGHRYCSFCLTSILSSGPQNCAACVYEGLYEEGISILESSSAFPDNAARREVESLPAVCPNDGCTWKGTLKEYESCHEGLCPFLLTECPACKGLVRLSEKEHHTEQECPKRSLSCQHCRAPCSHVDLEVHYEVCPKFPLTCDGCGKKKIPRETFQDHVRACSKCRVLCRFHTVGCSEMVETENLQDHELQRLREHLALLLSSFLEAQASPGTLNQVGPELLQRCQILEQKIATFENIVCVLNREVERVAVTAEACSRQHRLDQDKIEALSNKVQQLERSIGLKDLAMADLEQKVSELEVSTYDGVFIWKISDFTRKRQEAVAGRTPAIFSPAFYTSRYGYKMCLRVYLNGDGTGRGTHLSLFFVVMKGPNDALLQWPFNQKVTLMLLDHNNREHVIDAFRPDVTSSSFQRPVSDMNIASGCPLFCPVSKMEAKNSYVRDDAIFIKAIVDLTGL

[5] = target: T3, IKKϵ, endogenous, mouse primary CD4+ T cells (mouse, UniProt Q9R0T8 1-717); assay: as above
T3 construct: also called IKKi
T3 sequence (looked up): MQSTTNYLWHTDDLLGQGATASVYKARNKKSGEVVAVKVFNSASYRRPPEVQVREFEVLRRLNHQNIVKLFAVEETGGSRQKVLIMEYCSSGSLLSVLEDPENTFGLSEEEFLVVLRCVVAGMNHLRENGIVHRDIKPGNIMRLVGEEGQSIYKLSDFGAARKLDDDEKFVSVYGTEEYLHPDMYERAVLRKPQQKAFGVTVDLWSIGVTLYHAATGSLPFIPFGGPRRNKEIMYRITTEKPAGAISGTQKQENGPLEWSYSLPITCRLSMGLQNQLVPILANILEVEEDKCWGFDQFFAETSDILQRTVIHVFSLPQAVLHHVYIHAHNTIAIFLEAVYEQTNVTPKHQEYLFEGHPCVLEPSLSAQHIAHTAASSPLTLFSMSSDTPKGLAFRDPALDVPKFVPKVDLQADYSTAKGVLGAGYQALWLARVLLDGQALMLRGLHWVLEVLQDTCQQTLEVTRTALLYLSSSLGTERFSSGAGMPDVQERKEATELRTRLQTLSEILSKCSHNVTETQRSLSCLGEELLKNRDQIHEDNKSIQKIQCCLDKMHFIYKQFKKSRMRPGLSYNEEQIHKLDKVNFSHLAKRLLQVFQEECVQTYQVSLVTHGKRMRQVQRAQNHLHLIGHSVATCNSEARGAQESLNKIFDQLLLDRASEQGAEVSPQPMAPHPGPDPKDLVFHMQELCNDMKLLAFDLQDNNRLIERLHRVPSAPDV

[6] = target: T4, TANK-binding kinase 1 (TBK1), endogenous, mouse primary CD4+ T cells (mouse, UniProt Q9WUN2 1-729); assay: co-IP (anti-ICOS IP, immunoblot), mouse primary CD4+ T cells (FIG. 2a)
T4 construct: also called endogenous TBK1
T4 sequence (looked up): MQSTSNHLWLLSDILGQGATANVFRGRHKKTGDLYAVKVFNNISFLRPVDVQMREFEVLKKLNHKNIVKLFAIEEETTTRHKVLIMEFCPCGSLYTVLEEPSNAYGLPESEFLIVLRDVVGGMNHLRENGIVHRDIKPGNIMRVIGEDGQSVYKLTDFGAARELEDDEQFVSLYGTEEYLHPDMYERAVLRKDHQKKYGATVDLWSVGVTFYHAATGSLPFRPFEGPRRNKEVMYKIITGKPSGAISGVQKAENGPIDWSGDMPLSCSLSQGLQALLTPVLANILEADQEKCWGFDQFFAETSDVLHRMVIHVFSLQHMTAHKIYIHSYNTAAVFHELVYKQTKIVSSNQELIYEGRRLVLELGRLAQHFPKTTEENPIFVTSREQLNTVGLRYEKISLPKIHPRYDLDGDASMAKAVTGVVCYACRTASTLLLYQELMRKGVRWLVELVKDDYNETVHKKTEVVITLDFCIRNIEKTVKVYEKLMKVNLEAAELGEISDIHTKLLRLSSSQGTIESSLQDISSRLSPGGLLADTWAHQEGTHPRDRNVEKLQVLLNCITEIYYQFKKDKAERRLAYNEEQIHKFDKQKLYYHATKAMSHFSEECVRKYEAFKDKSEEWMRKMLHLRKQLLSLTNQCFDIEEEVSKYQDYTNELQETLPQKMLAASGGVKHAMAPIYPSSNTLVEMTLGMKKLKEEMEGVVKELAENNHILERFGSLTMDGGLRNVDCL
From the text: IPs or whole cell lysates (WCL) were immunoblotted with the indicated Abs. 5% WCL was used as input to control for IP Western. […] Jurkat T cells transfected with WT ICOS, mIProx, YF or tailless (TL) ICOS plasmids were stimulated with anti-CD3 plus −ICOS mAbs prior to IP and immunoblotting. […] In vitro activated primary mouse CD4⁺ T cells were stimulated with anti-CD3 plus the indicated costimulatory mAbs, and IP or WCL were subjected to immunoblotting with the indicated Abs. Shown are representative of three experiments.
The human leukemic Jurkat T cell line, JTAg, was previously described (Li, J et al. J Immunol 2013, 191(1): 200-207; Rolf J et al., J Immunol 2010, 185(7): 4042-4052) and the HEK 293T cell line was obtained from ATCC. These cell lines have not been recently STR profiled but tested negative for mycoplasma contamination. JTAg cells in logarithmic growth phase were transfected with plasmid DNAs by electroporation and incubated for 24 hours.

p85α, the regulatory subunit of PI3K, endogenous, mouse primary CD4+ T cells, sequence (P26450 2-724): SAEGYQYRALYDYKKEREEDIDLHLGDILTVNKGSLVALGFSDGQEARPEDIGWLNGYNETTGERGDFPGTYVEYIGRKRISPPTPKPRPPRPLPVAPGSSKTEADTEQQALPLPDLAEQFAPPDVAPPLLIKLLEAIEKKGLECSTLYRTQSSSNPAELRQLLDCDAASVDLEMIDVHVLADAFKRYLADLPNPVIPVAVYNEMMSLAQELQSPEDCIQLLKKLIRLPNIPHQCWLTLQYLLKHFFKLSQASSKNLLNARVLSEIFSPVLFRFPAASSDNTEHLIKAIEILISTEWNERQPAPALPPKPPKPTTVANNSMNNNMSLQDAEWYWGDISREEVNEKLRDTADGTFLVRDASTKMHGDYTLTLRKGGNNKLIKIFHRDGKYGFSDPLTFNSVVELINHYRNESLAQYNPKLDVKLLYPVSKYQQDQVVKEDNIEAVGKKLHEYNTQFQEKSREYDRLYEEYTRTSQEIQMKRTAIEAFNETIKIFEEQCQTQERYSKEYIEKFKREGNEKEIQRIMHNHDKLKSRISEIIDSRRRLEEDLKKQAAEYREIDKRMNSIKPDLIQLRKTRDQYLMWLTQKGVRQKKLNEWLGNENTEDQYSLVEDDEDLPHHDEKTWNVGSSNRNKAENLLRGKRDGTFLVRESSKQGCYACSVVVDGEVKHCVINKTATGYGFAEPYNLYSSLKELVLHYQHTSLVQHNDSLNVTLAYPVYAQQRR
TRAF5, endogenous, mouse primary CD4+ T cells, sequence (P70191 whole entry): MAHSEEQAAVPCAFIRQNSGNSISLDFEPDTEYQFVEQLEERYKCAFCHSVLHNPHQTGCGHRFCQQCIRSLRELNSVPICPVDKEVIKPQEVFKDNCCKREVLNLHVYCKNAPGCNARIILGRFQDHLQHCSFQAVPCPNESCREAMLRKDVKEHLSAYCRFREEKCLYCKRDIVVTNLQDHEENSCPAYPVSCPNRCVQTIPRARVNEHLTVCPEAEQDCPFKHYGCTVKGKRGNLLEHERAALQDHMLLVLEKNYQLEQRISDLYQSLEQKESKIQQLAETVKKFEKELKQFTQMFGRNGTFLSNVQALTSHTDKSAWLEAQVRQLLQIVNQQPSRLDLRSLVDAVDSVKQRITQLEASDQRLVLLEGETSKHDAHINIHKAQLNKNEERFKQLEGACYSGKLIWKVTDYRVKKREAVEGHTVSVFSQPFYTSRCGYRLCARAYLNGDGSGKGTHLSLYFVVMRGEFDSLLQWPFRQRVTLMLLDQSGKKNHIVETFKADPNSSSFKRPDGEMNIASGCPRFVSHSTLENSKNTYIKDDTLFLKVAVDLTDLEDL

binding result [1]: binds | binding result [2]: no binding | binding result [3]: no binding | binding result [4]: no binding | binding result [5]: no binding | binding result [6]: binds
B1: ICOS, endogenous, of mouse primary CD4+ T cells (receptor)
chain: EINGSADHRMFSFHNGGVQISCKYPETVQQLKMRLFREREVLCELTKTKGSGNAVSIKNPMLCLYHLSNNSVSFFLNNPDSSQGSYYFCSLSIFDPPPFQERNLSGGYLHIYESQLCCQLKLWLPVGCAAFVVVLLFGCILIIWFSKKKYGSSVHDPNSEYMFMAAVNTNKKSRLAGVTS
